Experimental data from patent EP4269437A1.
Positions count from the first letter of the chain named.

B1: NB153 (VHH)
VHH: DVQLQESGGGLVQAGGSLRVSCAASGRTFSSYGMGWFRQAPGKERELVAAITNTGLTYYADSVEGRFTISRDAAKNTVYLQMNSLEPEDTAVYYCNAGAPPPGGLGYDESDYWGQGTLVTVSS
B2: NB734 (VHH)
VHH: QVQLVETGGGLVQAGGSLRLSCAASGDTILFSAVGWHRQAPGKERELVAAITNSGVTYYADSVKGRFSISRDNAKNTVYLQMNSLKPEDTAVYYCNAGAPPPGEFGYDESDYWGQGTQVTVSS
B3: NB196 (VHH)
VHH: B2 VHH with A23T, I29N, V34M, V56M, S62V, S68T, I69L, E104G
B4: NB192 (VHH)
VHH: EVQLVESGGGLVQAGGSLRLSCAASGRTFNGYGMGWFRQAPGKEREFVAAISWRDSSKYYADSVRDRFTASRDNAKNTVYLQMNSLKPEDTAVYYCRPYSDYVTYDPYDYDAWGQGTQVTVSS
B5: NB755 (VHH)
VHH: QVQLVESGGGLVQAGGSLRLSCVDSGRTFSSYGMGWFRQAPGKEREFVAAVNWRNTTAYYADSAKDRFTISSDNAKNTVYLQMASLKPEDTGVYYCRPYSDYVSYDPTEYDSWGQGTQVTVSS
B6: NB159 (VHH)
VHH: QVQLVESGGGSVQAGDSLRISCEASGRTFMRYSMGWFRQASGKEREFVAAISWGGSSTYYADSVKGRFIISRDNTKNTVFLQMNSLKPEDTAVYYCAADTNPSGSWDRPTNEAEYDYWGQGTQVTVSS
B7: NB733 (VHH)
VHH: QVQLVESGGGLVQPGASLRLSCAAAGFTFSSWAMTWVRQAPGKGLEWVSAISSGSGEMADYADSVKGRFAISRDNAKNTLYLQMNNLQPEDTAMYYCAKGGYLTYANLGPGTQVTVSS
B8: NB170 (VHH)
VHH: EVQLVESGGGLVQAGDSLRLSCAASGGTFGRLETGWFRQAPGKEREFVAAISWDGETSYADSVKGRFTISRDNAKNTMALQMNRLTPEDTAVYFCAARVILRAYKYWGQGTQVTVSS
B9: NB735 (VHH)
VHH: EVQVVESGGGLVQPGGSLTLSCAVSGFTLDDYSIGWFRQAPGRAREAVSCTSNRDGSTYYEDSVKGRFTISRDNAKNTVYLQMNSLKPEDTAVYRCSTDCSLYGSTYSPDYWGQGTQVIVSS
B10: NB171 (VHH)
VHH: QVQLVESGGGLVQAGGSLRLSCAASGRTFSSYAMGWFRQALGKEREWIAGVSMSGRTTYYAAPVKDRFTISRDNAKNTVTLQMNSLKPEDTAVYYCAAGRAQAEIPIMRAQEYDSWGQGTQVTVSS
B11: NB172 (VHH)
VHH: EVQLVESGGGLVQAGGSLRLSCTASGDTRLASAMGWYRQAPGKERELVAVITNSGLTHYADSVEGRFTISRDSAKNTVYLQMNSLKPEDTAVYYCNAGAPPPGGLGYDESDYWDQGTQVTVSS
B12: NB754 (VHH)
VHH: QLQLVESGGGLVQPGGSLRLSCAVSGFTFSSDAMNWYRQAPGKERELVASITIDGGSTNYADSVKGRFTISRDNAKNTLYLQMNSLKPEDTAVYYCNADRGIIIYGKTYWGQGTQVTVSS
B13: NB169 (VHH)
VHH: QVQLVESGGGLVPPGGSLRLSCAASGFTFSSYPMSWYRQAPGRKRDFVAMLTGAGGSTDYADSVKGRFTISRDNAKNTVYLQMNSLKPEDTAVYYCNAPAAMRDYGIDYWGKGTLVNVSS
B14: NB164 (VHH)
VHH: QVQLVESGGGLLQAGDSLRLSCIASGRTFSSYAMGWFRQAPGKEREFVAGINGNGRSQYYAEVVKDRFFISRDNAKNTVYLQMNSLKPEDTAVYYCAAEGHLGVPTVRSDEYDYWGQGTQVTVSS
B15: NB222 (VHH)
VHH: QVQLVESGGGLVQAGGSLRLSCAASGGTFSNFNVGWFRQAPGKEREFVAASNWSAGTTHYSDSVKGRFTISRDNAANTAYLQMNSLRPDDTAVYYCNRVIRGTTYPDVYYGMDYWGKGTLVTVSS
B16: NB139 (VHH)
VHH: EVQVVESGGGLVQTGGSLRLSCAASGDTALISAMGWYRQAPGKERELVAALTNTGITYYADSVKGRFTISRDNAKNTVYLQMNSLKPEDTAVYYCNAGAPPPGGLGYDESDYWGQGTQVTVSS
B17: NB147 (VHH)
VHH: EVQVVESGGGVVQAGDSLRLSCVASGRTFSSVAMGWFRQAPGKEREFVAAISRSGGSAGYSDSVKDRSTISRDNAKNTVYLQMNSLKPEDTAVYFCAASELDFCSTLGCYDYWGQGIQVTFSS
B18: NB166 (VHH)
VHH: EVQVQESGGGLVQAGGSLTLSCAASGDTILISSIGWYRQAPGKERELVAAITNSGLTYYPDSVKGRFTISRDNAKNTVYLQMNNLKPEDTAVYYCNAGGPPPGGLGYDESDYWGQGTQVTVSS
B19: NB195 (VHH)
VHH: B18 VHH with Q5V, T19R, S33A, E44V, L56V, P60T, N83D, N84S, Q115P, Q118H
B20: NB532 (VHH)
VHH: QVQLVETGGGLVQAGGSLRLSCAASGRTFSSYNMGWFRQAPGKEREFVAAISWSGGSQGYAAAVKDRFTISRDNAKNTVYLQMNSLKAEDTAVYYCAAKYHSGSYYYTSIRPEEYDYWGQGTQVTVSS
B21: NB223 (VHH)
VHH: EVQLVESGGGLVQAGGSLRLSCAASGRTFSSYGMGWFRQAPGKEREFVAAVNWSNSSAYYADSVKDRFTISSDNAKSTIYLQMNSLKPEDTAVYYCRPYSDYVTYDPDDYDYWGQGTQVTVSS
B22: NB173 (VHH)
VHH: QVQLQESGGGLVQAGGSLRLSCAASGRSFNSYAMGWFRQAPGKEREFVAAISQNGGTQGYAEAVKDRFTISRDNTNKVVALQMNSLKPEDTAAYYCAADGDASDISYAPPRDYEYDYWGQGTQVTVSS
B23: NB200 (VHH)
VHH: B22 VHH with Q5V, R19T, S28T, T57S, I105R, D116E
B24: NB197 (VHH)
VHH: QVQLQESGGGLVQPGGSLRLSCAASGFTLDDHSIGWFRQAPGKEREPVSCISTSDGRTYYEDSVKGRFTISRDKAKNTVYLQMDSLKPEDTAVYYCTTDVACYSDYDPSFRFWGQGTQVTVSS
B25: NB148 (VHH)
VHH: QVQLVESGGGLVQAGGSLRLSCAASGGTFSGSELGWFRQAPGKEREFVAGISRNGGTTGYSDSVKDRFTIARDNAKNTVYLQMNSLKPEDTAVYYCAAGLRAYYGDSYVDTMTENYNYWGQGTQVTVSS
B26: NB548 (VHH)
VHH: QLQLVESGGGLVQPGGSLRLSCTANGFSVGDYSMSWHRQPPGKEREVVATTARDSGSTFYAASVKGRFTISRDNAKNTVYLQMNSLKPEDTGVYYCRVNSQDYWGQGTQVTVSS
B27: NB189 (VHH)
VHH: QVKLEESGGGLVQAGGSLRLSCTASGGTFNSYAMGWFRQAPGKERESVAAINLSRGNTYYADSVKGRFTISRDNAKNTVYLQMNSLKPEDTAVYHCGVDRRQYGLGIPPLADHWGQGTQVTVSS
B28: NB221 (VHH)
VHH: EVQLVESGGGLVQAGDSLRLSCAASGRTFSSVAMGWFRQAPGKEREFVAAISRSGGSAGYADSVKDRSTIARDNTKNTVYLQMNSLKPEDTAVYFCAASEYDFCSTHGCYDYWGQGTQVTISL
B29: NB154 (VHH)
VHH: QVQLVESGGGLVQAGDSLRLSCAASGGTFSGYGMGWFRQAPGKEREFVAGISRHGGSTGYSSSVKDRFTISRDNAKNTVDLQMNSLKPEDTAVYHCAAALRPDYGDSYVYTSTSNYEYWGQGTQVTVSS

target: PD-1 (UniProt Q15116); assay: ELISA, TG1 supernatant on coated PD-1, anti-c-myc HRP
Sequence (Q15116 25-170 limits assumed): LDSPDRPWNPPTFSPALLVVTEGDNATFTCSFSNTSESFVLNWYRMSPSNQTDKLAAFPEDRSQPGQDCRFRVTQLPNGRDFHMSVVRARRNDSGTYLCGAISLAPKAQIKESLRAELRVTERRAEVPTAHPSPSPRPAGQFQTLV

Binder	OD450, clone binding with PD-1
B1	3.29 OD450
B2	2.17 OD450
B3	3.39 OD450
B4	2.65 OD450
B5	1.7 OD450
B6	1.84 OD450
B7	1.03 OD450
B8	2.7 OD450
B9	1.81 OD450
B10	2.78 OD450
B11	3.05 OD450
B12	2.04 OD450
B13	2.9 OD450
B14	2.84 OD450
B15	3.13 OD450
B16	3.12 OD450
B17	2.63 OD450
B18	3.39 OD450
B19	3.13 OD450
B20	1.36 OD450
B21	1.3 OD450
B22	2.97 OD450
B23	2.31 OD450
B24	2.66 OD450
B25	2.84 OD450
B26	2.13 OD450
B27	2.97 OD450
B28	2.62 OD450
B29	2.61 OD450

target: PD-1 (UniProt Q15116); assay: blocking ELISA, clone supernatant, competitor PD-L1.hFc detected with anti-human Fc HRP

Binder	OD450, PD-L1 binding with PD-1
B1	2.05 OD450
B2	1.42 OD450
B3	2.49 OD450
B4	2.24 OD450
B5	2.2 OD450
B6	2.1 OD450
B7	2.47 OD450
B8	2.02 OD450
B9	2.44 OD450
B10	0.715 OD450
B11	2.17 OD450
B12	2.37 OD450
B13	2.13 OD450
B14	2 OD450
B15	2.23 OD450
B16	2.39 OD450
B17	0.994 OD450
B18	2.29 OD450
B19	2.24 OD450
B20	2.19 OD450
B21	2.25 OD450
B22	0.794 OD450
B23	2.48 OD450
B24	2.27 OD450
B25	2.56 OD450
B26	2.43 OD450
B27	2.34 OD450
B28	2.25 OD450
B29	2.28 OD450
